Reference: patent US20130136736A1 (Ablynx, published 2013)

Molecular target: T1, human von Willebrand Factor (vWF) (human, UniProt P04275 764-2813)
T1 construct: Multimeric plasma protein; The species of the vWF on the BIACORE chip and ELISA plates is not restated there; also called vWF (Red Cross); human vWF
Assay: ELISA on coated vWF: supernatant of a 200 µg/ml nanobody solution heated for 1 h at RT to 90 °C, dilution series, OD 405 nm

B1: 12A2H4 (VHH)
VHH: EVQLVESGGGLVQPGGSLRLSCAASGRTFSYNPMGWFRQAPGKGRELVAAISRTGGSTYYPDSVEGRFTISRDNAKRSVYLQMNSLRAEDTAVYYCAAAGVRAEDGRVRTLPSEYTFWGQGTQVTVSS
notes: Humanised 12A2, monovalent
binding result: binds
